In paper PMC12337650 (iScience, 2025):

Target: the molecule itself
Assay: cross-linking

B1: hIRE1α(CD) (residues 469–977) (domain or fragment)
chain: HQQQQLQHQQFQKELEKIQLLQQQQQQLPFHPPGDTAQDGELLDTSGPYSESSGTSSPSTSPRASNHSLCSGSSASKAGSSPSLEQDDGDEETSVVIVGKISFCPKDVLGHGAEGTIVYRGMFDNRDVAVKRILPECFSFADREVQLLRESDEHPNVIRYFCTEKDRQFQYIAIELCAATLQEYVEQKDFAHLGLEPITLLQQTTSGLAHLHSLNIVHRDLKPHNILISMPNAHGKIKAMISDFGLCKKLAVGRHSFSRRSGVPGTEGWIAPEMLSEDCKENPTYTVDIFSAGCVFYYVISEGSHPFGKSLQRQANILLGACSLDCLHPEKHEDVIARELIEKMIAMDPQKRPSAKHVLKHPFFWSLEKQLQFFQDVSDRIEKESLDGPIVKQLERGGRAVVKMDWRENITVPLQTDLRKFRTYKGGSVRDLLRAMRNKKHHYRELPAEVRETLGSLPDDFVCYFTSRFPHLLAHTYRAMELCSHERLFQPYYFHEPPEPQPPVTPDAL
binding result: binds
